We go through five molecules from publication PMC11903765, “ARR1 and AHP interactions in the multi-step phosphorelay system” (Frontiers in Plant Science, 2025).

For test [1], the target named is biotinylated ARR1-REC-GARP (ARR1 residues 1-296), construct for BLI (Arabidopsis thaliana) (UniProt Q940D0). Briefly: BLI; biotinylated ARR1-REC-GARP immobilised on Octet SA biosensors, AHPs as analytes; fit of the binding kinetics; 20 mM HEPES/NaOH pH 7.0, 50 mM NaCl, 50 mM KCl, 0.5 mM TCEP, 0.5% BSA, 0.05% Tween 20; 25°C. (In BLI a coated tip is dipped into the sample, and binding shifts an interference pattern.)

The target is the same in test [2]. Kind of test: BLI; biotinylated ARR1-REC-GARP immobilised on Octet SA biosensors, AHPs as analytes; fit of the steady-state data; 20 mM HEPES/NaOH pH 7.0, 50 mM NaCl, 50 mM KCl, 0.5 mM TCEP, 0.5% BSA, 0.05% Tween 20; 25°C.
Test [3] deals with T1, biotinylated ARR1-REC-GARP (ARR1 residues 1-296), construct for BLI (Arabidopsis thaliana, UniProt Q940D0 1-296, biotin on the Avi-tag (by co-expressed BirA)).
T1 construct: ARR1, Arabidopsis thaliana, UniProt Q940D0, residues 1-296 (REC domain and GARP motif); cloned into pMCSG62, which provides the Avi-tag; The results define ARR1-RG as 38-296; the methods give 1-296 for the BLI construct; also called ARR1-RG; biotinylated variant of ARR1-RG; source: E. coli BL21 Gold, co-expressed with BirA, purified (Ni-NTA)
T1 sequence (looked up): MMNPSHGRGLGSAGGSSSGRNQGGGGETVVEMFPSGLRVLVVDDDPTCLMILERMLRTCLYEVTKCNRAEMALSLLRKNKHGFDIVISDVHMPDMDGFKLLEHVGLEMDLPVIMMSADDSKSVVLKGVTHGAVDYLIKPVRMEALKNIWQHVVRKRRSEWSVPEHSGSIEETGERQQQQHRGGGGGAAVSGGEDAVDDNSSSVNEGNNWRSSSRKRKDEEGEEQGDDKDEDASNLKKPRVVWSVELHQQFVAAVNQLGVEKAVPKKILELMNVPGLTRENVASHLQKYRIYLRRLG
Kind of test: BLI; biotinylated ARR1-REC-GARP immobilised on Octet SA biosensors, AHPs as analytes; fit of the binding kinetics; 20 mM HEPES/NaOH pH 7.0, 50 mM NaCl, 50 mM KCl, 0.5 mM TCEP, 0.5% BSA, 0.05% Tween 20; 25°C. As to conditions: both partners purified.

The target of test [4] is T1, biotinylated ARR1-REC-GARP (ARR1 …). Briefly: BLI; biotinylated ARR1-REC-GARP immobilised on Octet SA biosensors, AHPs as analytes; fit of the steady-state data; 20 mM HEPES/NaOH pH 7.0, 50 mM NaCl, 50 mM KCl, 0.5 mM TCEP, 0.5% BSA, 0.05% Tween 20; 25°C. As to conditions: both partners purified.
Test [5] deals with T2, ARR1-REC-GARP (ARR1 residues 38-296), construct for structural studies (Arabidopsis thaliana, UniProt Q940D0 38-296).
T2 construct: ARR1, Arabidopsis thaliana, UniProt Q940D0, residues 38-296: REC domain (38-158), linker (159-235, not visible in the map), GARP motif (236-296); cloned into pMCSG53; TEV protease was not able to cleave the His-tag, so it stayed on the protein; also called ARR1-RG; source: E. coli BL21 Gold, purified (Ni-NTA; then SEC of the complex)
T2 sequence (looked up): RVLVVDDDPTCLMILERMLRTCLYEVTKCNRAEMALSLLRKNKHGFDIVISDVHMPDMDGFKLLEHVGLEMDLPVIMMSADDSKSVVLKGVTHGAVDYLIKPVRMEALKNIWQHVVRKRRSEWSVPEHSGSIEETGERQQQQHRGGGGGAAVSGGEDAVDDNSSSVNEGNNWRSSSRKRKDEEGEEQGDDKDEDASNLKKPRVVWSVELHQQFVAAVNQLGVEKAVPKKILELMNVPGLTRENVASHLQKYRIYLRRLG
Briefly: crystal structure; complex from mixing 1 ARR1 : 1.5 AHP1, purified by SEC; crystals from Morpheus G11, pH 8.5, 32.5 mg/mL; 2.9 Å; two complexes in the asymmetric unit. As to conditions: both partners purified. On the technique in general: Size exclusion chromatography separates by hydrodynamic size, large species first.

In general, Kd refers to a measure of binding affinity in units of concentration. Read a high Kd as weaker binding. As usually defined, the koff is the first-order rate constant of dissociation. A higher koff goes with a short-lived complex. In general, kon refers to the second-order rate constant of association. Higher therefore signals fast association. As a reminder, the stoichiometry N is a count of units in the complex or per binding partner.

With “AHP5 (Arabidopsis histidine-containing phosphotransfer protein 5) (natural protein)”, in test [1], the Kd came out at 152 nM, the dissociation rate constant (koff) is 0.089 s⁻¹ and the kon is 588000 M⁻¹ s⁻¹. This molecule also had a Kd in test [2] of 150 nM.
The like results for “AHP4 (Arabidopsis histidine-containing phosphotransfer protein 4) (natural protein)” were, in that order, 166 nM, 0.06 s⁻¹, 360000 M⁻¹ s⁻¹ and 170 nM.
As for “AHP3 (Arabidopsis histidine-containing phosphotransfer protein 3) (natural protein)”, in test [1], the Kd worked out at 174 nM, the koff amounted to 0.0917 s⁻¹ and the on-rate constant (kon) was 522000 M⁻¹ s⁻¹. The same molecule yielded a Kd in test [2] of 175 nM.
In test [1], “AHP2 (Arabidopsis histidine-containing phosphotransfer protein 2) (natural protein)” had a Kd of 160 nM, a koff of 0.0913 s⁻¹ and a kon of 573000 M⁻¹ s⁻¹. In test [2], this molecule showed a Kd of 160 nM.

B1: AHP1 (Arabidopsis histidine-containing phosphotransfer protein 1), full length (natural protein, Arabidopsis thaliana, UniProt Q9ZNV9 1-154, looked up)
chain: MDLVQKQKSLQDYTKSLFLEGILDSQFLQLQQLQDESNPDFVSQVVTLFFQDSDRILNDLSLSLDQQVVDFKKVDPHVHQLKGSSSSIGAQRVKNACVVFRSFCEQQNVEACHRCLQQVKQEYYLVKNRLETLFKLEQQIVASGGMIPAVELGF
notes: AHP1, Arabidopsis thaliana, UniProt Q9ZNV9, full-length protein cloned from A. thaliana cDNA into pMCSG53; Unphosphorylated; source: E. coli BL21 Gold, purified (Ni-NTA, TEV digestion, second Ni-NTA, SEC)
In the case of B1, in test [3], the Kd came to 94 nM, the koff came out at 0.0423 s⁻¹ and the kon amounted to 444000 M⁻¹ s⁻¹. The same molecule had a Kd in test [4] of 94 nM. Besides, the “stoichiometry N” value in test [5] is 1.
